# Data taken from US20240158474A1 (SINO BIOLOGICAL, published 2024).
# T1: HPV51 VLP protein (human papillomavirus type 51, UniProt P26536 1-474)
# T1 construct: Complete VLP protein; no limits of the construct printed, whole entry named; also called HPV51L1
# T1 sequence: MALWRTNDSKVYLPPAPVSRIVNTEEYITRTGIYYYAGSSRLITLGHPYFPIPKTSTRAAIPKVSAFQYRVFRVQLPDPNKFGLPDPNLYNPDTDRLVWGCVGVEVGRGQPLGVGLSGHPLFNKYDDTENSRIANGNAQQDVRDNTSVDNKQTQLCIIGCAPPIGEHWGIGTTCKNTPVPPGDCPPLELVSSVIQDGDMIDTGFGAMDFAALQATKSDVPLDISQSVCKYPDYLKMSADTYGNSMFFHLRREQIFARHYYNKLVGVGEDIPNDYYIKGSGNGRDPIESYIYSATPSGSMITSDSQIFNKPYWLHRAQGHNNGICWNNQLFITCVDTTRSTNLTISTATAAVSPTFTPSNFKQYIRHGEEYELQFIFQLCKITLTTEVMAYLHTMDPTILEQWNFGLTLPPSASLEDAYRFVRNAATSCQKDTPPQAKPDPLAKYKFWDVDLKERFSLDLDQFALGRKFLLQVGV
# T2: HPV52 VLP protein (human papillomavirus type 52, UniProt Q05138 27-504)
# T2 construct: Complete VLP protein; no limits of the construct printed, whole entry named; also called P52SHELL
# T2 sequence: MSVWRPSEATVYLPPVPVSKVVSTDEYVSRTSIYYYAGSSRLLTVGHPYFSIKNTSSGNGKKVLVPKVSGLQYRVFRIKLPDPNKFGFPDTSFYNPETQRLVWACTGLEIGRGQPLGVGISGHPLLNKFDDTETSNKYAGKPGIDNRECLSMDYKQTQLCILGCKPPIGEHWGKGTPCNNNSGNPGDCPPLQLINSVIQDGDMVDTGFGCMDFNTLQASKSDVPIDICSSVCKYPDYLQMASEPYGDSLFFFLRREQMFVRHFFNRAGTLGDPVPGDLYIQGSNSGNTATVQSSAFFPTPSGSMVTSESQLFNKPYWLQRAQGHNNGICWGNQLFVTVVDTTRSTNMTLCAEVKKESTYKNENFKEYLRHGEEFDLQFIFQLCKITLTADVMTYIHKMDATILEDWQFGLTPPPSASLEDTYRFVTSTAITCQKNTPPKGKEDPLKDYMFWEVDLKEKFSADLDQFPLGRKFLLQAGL
# T3: HPV31 VLP protein (human papillomavirus type 31; human …, UniProt P17388 1-475; P06416 474-499)
# T3 construct: range 1-475;range 474-499; Complete VLP protein used as coating protein; also called P31SHELL(1-475Y)+HPV33L1(474K-499K)
# T3 sequence: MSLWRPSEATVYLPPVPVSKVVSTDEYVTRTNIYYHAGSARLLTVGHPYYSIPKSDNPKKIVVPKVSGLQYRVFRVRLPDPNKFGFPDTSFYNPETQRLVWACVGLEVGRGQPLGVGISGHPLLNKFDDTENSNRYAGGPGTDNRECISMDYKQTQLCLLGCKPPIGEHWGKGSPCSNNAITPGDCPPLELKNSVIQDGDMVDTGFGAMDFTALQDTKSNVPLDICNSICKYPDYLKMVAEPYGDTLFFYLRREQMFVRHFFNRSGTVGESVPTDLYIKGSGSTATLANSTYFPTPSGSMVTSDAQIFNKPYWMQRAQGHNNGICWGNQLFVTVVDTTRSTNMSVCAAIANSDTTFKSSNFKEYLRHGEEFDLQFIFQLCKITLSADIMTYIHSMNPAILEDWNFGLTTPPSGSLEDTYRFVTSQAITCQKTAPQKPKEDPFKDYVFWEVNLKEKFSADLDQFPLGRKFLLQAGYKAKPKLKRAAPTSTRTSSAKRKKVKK
# T4: HPV6 VLP protein (human papillomavirus type 6 (C-terminal …, UniProt P69898 1-469))
# T4 construct: Virus-like particle self-assembled from the L1 chain, expressed in an insect cell system; also called HPV6 L1; HPV6L1(1-469Y)+HPV33L1(474K-499K)
# T4 sequence: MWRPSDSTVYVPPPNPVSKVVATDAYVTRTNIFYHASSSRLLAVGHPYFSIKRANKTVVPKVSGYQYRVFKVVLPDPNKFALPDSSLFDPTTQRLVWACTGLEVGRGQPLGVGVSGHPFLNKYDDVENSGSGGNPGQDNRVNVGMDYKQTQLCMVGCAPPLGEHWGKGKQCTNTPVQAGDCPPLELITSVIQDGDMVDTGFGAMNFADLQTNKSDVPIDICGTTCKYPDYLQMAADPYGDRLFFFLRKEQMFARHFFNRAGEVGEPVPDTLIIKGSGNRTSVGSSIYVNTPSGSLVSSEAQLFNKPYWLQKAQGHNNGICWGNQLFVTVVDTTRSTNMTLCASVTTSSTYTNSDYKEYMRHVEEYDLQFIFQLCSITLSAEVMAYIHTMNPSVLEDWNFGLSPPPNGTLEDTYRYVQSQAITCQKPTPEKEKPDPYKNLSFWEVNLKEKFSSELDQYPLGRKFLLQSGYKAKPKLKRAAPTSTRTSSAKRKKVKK
# B1: monoclonal antibody HPV6-R003 (antibody, V domains shown)
# VH: QQQLEESGGGLVKPGGTLTLTCKASGIDLSNYYMCWVRQAPGKGLEWIGCIYTGSGRTYYASWAKGRFTISKASSTTVTLQMTSLTAADTATYFCARDYLGWRASNIWGPGTLVTVSS
# VL: ELVMTQTPSSVSAAVGGTVTINCQASQSVYSNNLVWYQQKPGQPPKLLIYGASTLASGVPSRFKGSGSGTQFTLTISDVVCDDAATYYCGGYVSDSTDGTAFGGGTEVVVKG
# notes: here built from variable plus constant region so that the signal peptides are left out; In the sandwich ELISA the same antibody is used as coating antibody and, labelled with horseradish peroxidase, as detection antibody; also called anti-HPV6 L1 protein antibody
# Tests used:
# Test in all cases: indirect ELISA, VLP coated at 2 µg/mL, antibody 10 ng/mL, HRP goat anti-rabbit Fc
# HPV51 VLP protein = target: T1, HPV51 VLP protein
# HPV52 VLP protein = target: T2, HPV52 VLP protein
# HPV18 VLP protein = target: T5, HPV18 VLP protein (human papillomavirus type 18)
# T5 construct: Complete VLP protein; no limits of the construct printed, whole entry named; also called P18SHELL
# HPV31 VLP protein = target: T3, HPV31 VLP protein
# HPV6 VLP protein = target: T4, HPV6 VLP protein
# HPV59 VLP protein = target: T6, HPV59 VLP protein (human papillomavirus type 59)
# T6 construct: Complete VLP protein; no limits of the construct printed, whole entry named; also called HPV59L1
binder,measurement,setting,value
B1,OD450-blank,HPV51 VLP protein,0.041 OD450
same,OD450-blank,HPV52 VLP protein,0.044 OD450
same,OD450-blank,HPV18 VLP protein,0.045 OD450
same,OD450-blank,HPV31 VLP protein,0.047 OD450
same,OD450-blank,HPV6 VLP protein,2.42 OD450
same,OD450-blank,HPV59 VLP protein,0.041 OD450
